Data set [1] in a line: Western blot, cleavage at R31↓L32; HEK293, CHO-K1, NRVM. Particulars: glycan lost; control: S49 (WT) variant.
Data set [2] in a line: Flow cytometry, surface full-length receptor, cMyc antibody, HEK293i. The settings on record: control: S49 (WT) variant. (Flow cytometry measures light scatter and fluorescence of single cells or particles in a stream.)
Data set [3] is described as follows: Western blot, P52↓L53 cleavage in isolated HEK293i membranes. Particulars: glycan lost; control: S49 (WT) variant.
A short description of data set [4]: Western blot, N-terminal cleavage, CHO-ldlD cells.
Data set [5] is described as follows: Western blot, N-terminal cleavage, rat cardiomyocytes. The settings on record: glycan lost.
In data set [6] the target is human β1-adrenergic receptor G49R389 variant (human) (UniProt P08588).
For data set [7], the target named is human β1-adrenergic receptor S49G389 variant (human) (UniProt P08588).
Data set [8] concerns the target human β1-adrenergic receptor G49G389 variant (human) (UniProt P08588).

Chain of β-arrestin2 fused to Renilla luciferaseII (P32121 whole entry, the tested form may be a part): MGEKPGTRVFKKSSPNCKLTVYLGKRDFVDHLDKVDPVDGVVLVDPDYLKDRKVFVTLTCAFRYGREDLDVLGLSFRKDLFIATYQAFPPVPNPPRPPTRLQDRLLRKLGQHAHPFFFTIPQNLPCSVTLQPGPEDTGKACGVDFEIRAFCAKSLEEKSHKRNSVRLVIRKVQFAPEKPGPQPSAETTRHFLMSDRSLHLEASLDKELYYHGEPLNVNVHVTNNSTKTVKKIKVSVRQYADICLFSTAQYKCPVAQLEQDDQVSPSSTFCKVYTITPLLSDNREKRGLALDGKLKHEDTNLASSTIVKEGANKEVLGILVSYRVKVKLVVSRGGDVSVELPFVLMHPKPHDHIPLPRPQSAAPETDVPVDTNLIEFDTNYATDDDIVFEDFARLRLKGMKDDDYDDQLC
Chain of human β1-adrenergic receptor G49G389 variant (human) (P08588 whole entry S49G): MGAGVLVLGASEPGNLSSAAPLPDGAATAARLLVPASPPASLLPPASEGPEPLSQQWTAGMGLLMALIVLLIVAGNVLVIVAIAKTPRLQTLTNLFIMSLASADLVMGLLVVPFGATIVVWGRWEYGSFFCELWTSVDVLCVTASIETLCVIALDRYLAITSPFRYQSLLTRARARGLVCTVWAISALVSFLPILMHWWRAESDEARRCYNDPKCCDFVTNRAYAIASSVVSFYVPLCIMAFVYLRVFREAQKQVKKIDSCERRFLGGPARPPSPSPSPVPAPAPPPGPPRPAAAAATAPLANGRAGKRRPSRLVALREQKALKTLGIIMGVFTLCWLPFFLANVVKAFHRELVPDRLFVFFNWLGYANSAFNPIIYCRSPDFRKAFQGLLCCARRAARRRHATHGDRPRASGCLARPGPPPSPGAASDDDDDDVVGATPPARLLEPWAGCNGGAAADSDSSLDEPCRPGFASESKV
Chain of human β1-adrenergic receptor G49R389 variant (human) (P08588 other isoform, or with tags, fused parts or gaps S49G | R389 (the paper's WT allele at rs1801253) | mutant): as the sequence (P08588 whole entry S49G) above, with G389R counted along it
Chain of human β1-adrenergic receptor S49G389 variant (human) (P08588 whole entry, change not shown): as the sequence (P08588 whole entry S49G) above, with G49S counted along it

Turning to “human β1‐adrenergic receptor (hβ1AR): G49 variant”, the “other: proteolytic processing” value in data set [1] was “no change”; in data set [3], “increases”. Further, the expression_or_secretion entry in data set [2] (glycan lost) is on record as “no change”.
On to “human β1‐adrenergic receptor (hβ1AR): GalNAc only (Tn)”, for which the “other: proteolytic processing” value in data set [4] (glycan changed form, control: S49 (WT) in CHO-ldlD with Gal + GalNAc) is listed as “increases”; in data set [4] (glycan changed form, control: T29 variant in CHO-ldlD with Gal + GalNAc), “no change”.
As to “human β1‐adrenergic receptor (hβ1AR): Galnt2 KO”, the “other: proteolytic processing” value in data set [5] (control: S49 (WT) in WT NRVMs) is “increases”; in data set [5] (control: T29 variant in WT NRVMs), “no change”.
Consider “human β1‐adrenergic receptor (hβ1AR): T29 variant”, for which, in data set [2] (glycan gained), the expression_or_secretion result was “increases”.
As to “human β1‐adrenergic receptor (hβ1AR): no GalNAc, no Gal”, the “other: proteolytic processing” value in data set [4] (glycan lost, control: S49 (WT) in CHO-ldlD with Gal + GalNAc) is reported as “increases”.
Regarding “β-arrestin2 fused to Renilla luciferaseII (from UniProt P32121 1-409) (natural protein)”, the E max of isoproterenol-induced β-arrestin2 recruitment to the plasma membrane, enhanced bystander BRET (β-arrestin2-RlucII with rGFP-CAAX) in HEK293S cells, normalised to S49R389 in data set [6] was 97.8 % WT E max; in data set [7], 89.4 % WT E max; in data set [8] it was 83.3 % WT E max.
